Reference: PMC5807052, “Robo1 Forms a Compact Dimer-of-Dimers Assembly” (Structure(London, England:1993), 2018)
“And” between values parts separate entries of the source, which are not always exact repeats. Identical values can stand only once.

B1: Robo1 ECDb (human Robo1 whole ectodomain, residues 61-864) (domain or fragment, UniProt Q9Y6N7-1 61-864, looked up)
chain: LRQEDFPPRIVEHPSDLIVSKGEPATLNCKAEGRPTPTIEWYKGGERVETDKDDPRSHRMLLPSGSLFFLRIVHGRKSRPDEGVYVCVARNYLGEAVSHNASLEVAILRDDFRQNPSDVMVAVGEPAVMECQPPRGHPEPTISWKKDGSPLDDKDERITIRGGKLMITYTRKSDAGKYVCVGTNMVGERESEVAELTVLERPSFVKRPSNLAVTVDDSAEFKCEARGDPVPTVRWRKDDGELPKSRYEIRDDHTLKIRKVTAGDMGSYTCVAENMVGKAEASATLTVQEPPHFVVKPRDQVVALGRTVTFQCEATGNPQPAIFWRREGSQNLLFSYQPPQSSSRFSVSQTGDLTITNVQRSDVGYYICQTLNVAGSIITKAYLEVTDVIADRPPPVIRQGPVNQTVAVDGTFVLSCVATGSPVPTILWRKDGVLVSTQDSRIKQLENGVLQIRYAKLGDTGRYTCIASTPSGEATWSAYIEVQEFGVPVQPPRPTDPNLIPSAPSKPEVTDVSRNTVTLSWQPNLNSGATPTSYIIEAFSHASGSSWQTVAENVKTETSAIKGLKPNAIYLFLVRAANAYGISDPSQISDPVKTQDVLPTSQGVDHKQVQRELGNAVLHLHNPTVLSSSSIEVHWTVDQQSQYIQGYKILYRPSGANHGESDWLVFEVRTPAKNSVVIPDLRKGVNYEIKARPFFNEFQGADSEIKFAKTLEEAPSAPPQGVTVSKNDGNGTAILVSWQPPPEDTQNGMVQEYKVWCLGNETRYHINKTVDGSTFSVVIPFLVPGIRYSVEVAASTGAGSGVKS
notes: Robo1, human, whole ectodomain construct ECDb, residues 61-864 of NP_002932; Cloned into a modified pTT3 vector that encodes a signal peptide and a C-terminal hexa-histidine tag; also called pTT3_Robo1_ECDb; source: HEK-293T, transient expression, secreted, purified (Ni-sepharose, SEC Superdex S200)
B2: Robo1 ECDa (human Robo1 ectodomain, residues 61-853) (domain or fragment, UniProt Q9Y6N7-1 61-853, looked up)
chain: LRQEDFPPRIVEHPSDLIVSKGEPATLNCKAEGRPTPTIEWYKGGERVETDKDDPRSHRMLLPSGSLFFLRIVHGRKSRPDEGVYVCVARNYLGEAVSHNASLEVAILRDDFRQNPSDVMVAVGEPAVMECQPPRGHPEPTISWKKDGSPLDDKDERITIRGGKLMITYTRKSDAGKYVCVGTNMVGERESEVAELTVLERPSFVKRPSNLAVTVDDSAEFKCEARGDPVPTVRWRKDDGELPKSRYEIRDDHTLKIRKVTAGDMGSYTCVAENMVGKAEASATLTVQEPPHFVVKPRDQVVALGRTVTFQCEATGNPQPAIFWRREGSQNLLFSYQPPQSSSRFSVSQTGDLTITNVQRSDVGYYICQTLNVAGSIITKAYLEVTDVIADRPPPVIRQGPVNQTVAVDGTFVLSCVATGSPVPTILWRKDGVLVSTQDSRIKQLENGVLQIRYAKLGDTGRYTCIASTPSGEATWSAYIEVQEFGVPVQPPRPTDPNLIPSAPSKPEVTDVSRNTVTLSWQPNLNSGATPTSYIIEAFSHASGSSWQTVAENVKTETSAIKGLKPNAIYLFLVRAANAYGISDPSQISDPVKTQDVLPTSQGVDHKQVQRELGNAVLHLHNPTVLSSSSIEVHWTVDQQSQYIQGYKILYRPSGANHGESDWLVFEVRTPAKNSVVIPDLRKGVNYEIKARPFFNEFQGADSEIKFAKTLEEAPSAPPQGVTVSKNDGNGTAILVSWQPPPEDTQNGMVQEYKVWCLGNETRYHINKTVDGSTFSVVIPFLVPGIRYSVEVA
notes: Robo1, human, ectodomain construct ECDa, residues 61-853 of NP_002932; lacks the last beta-strand of Fn3; Cloned into a modified pTT3 vector that encodes a signal peptide and a C-terminal hexa-histidine tag; also called pTT3_Robo1_ECDa; source: HEK-293T, transient expression, secreted, purified (Ni-sepharose, SEC Superdex S200)

What was measured:
[1] = target: the molecule itself; assay: negative-stain EM reconstruction; GraFix-stabilised sample (fraction 12), ammonium molybdate stain, 100 kV; 3D map with D2 symmetry, 16 Å (FSC 0.143), filtered to 20 Å
[2] = target: the molecule itself; assay: SEC-MALS; Superdex S200 HR 10/30, 200 mM NaCl, 20 mM Tris pH 7.5; 55 ul of Robo1 ECDa at 2.5 mg/ml from peak 1 of the SEC
[3] = target: the molecule itself; assay: SEC; Superdex S200, 200 mM NaCl, 20 mM Tris pH 7.5; self-association of Robo1 ECD

Protein	binding result [1]	stoichiometry N [2]	stoichiometry N [3]
B1	binds		
B2		1	4 and 2
